Reference: the supplement of paper PMC12042874
± gives the uncertainty stated by the source.

Assay: amyloid nucleation score (Sup35N fusion, yeast selection) (log enrichment); library NNK1; higher = more nucleation; inactive = no reads after selection
Procedure, shortened: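 Plasmid inserts were Illumina-sequenced at input and output from psi-negative yeast expressing Sup35N fused to peptides of 20 random codons. The yeast were induced with 100 μM copper sulfate for 24 hours and grown 7 days at 30°C on medium lacking adenine and uracil, and sequences with under 100 input reads were excluded. Nucleation score is the DiMSum log enrichment of output over input reads, centred on the mode score of non-aggregating sequences.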

Substance	amyloid nucleation score
IHDAYVTESGYWVDV	1.29 ± 0.66
PCWGGTLGSVKLVVSSSA	inactive
KDRFMSIYLVSYWSGLCTGL	inactive
RRSPGYMDLCWNGWFGRAVR	0.207 ± 0.5
VFKESGSRGFVMYTGILSCQ	0.507 ± 0.68
GGNDHVANLTCNNVAGSRGT	4.33 ± 0.14
LLIGYWLNLECLRYEMCHVL	-0.396 ± 0.66
LIEGRGIRGLVCCFSISFA	8.375 ± 0.048
ELRYCEFTCSISWA	0.744 ± 0.36
QTRWACTTQCGCKCFFE	1.53 ± 0.15
FSARTTVENAEDRSFDNQLV	0.312 ± 0.4
LTEDMNYFAY	0.252 ± 0.46
DEPAWCSIFAGDIMLKCC	3.57 ± 0.077
LSHVKTTRLMPLET	-1.11 ± 1.7
VSGIVPDDLSVFDVHSKYV	0.455 ± 0.33
GMCIRNRMRDNVNSLSSACD	0.362 ± 1.4
YTFQIILNSVPWYFCAMLWE	5.54 ± 0.1
RVFLQTGWVCGVRHANNRLR	-0.006 ± 0.87
LTSFETFQNFNMAVMYAR	-0.236 ± 0.65
SLEVRNRCNVYVAAANLLVM	2.76 ± 0.095
QNLYVLDSYSLLNNFVSCII	-0.623 ± 0.35

Substance	amyloid nucleation score
FNDLYLGAYSRREDTNYVRL	0.198 ± 0.56
SDRNERSVLSTCFGGCVPTG	1.14 ± 0.24
INIVVMGMAGRRQGVPVACV	1.59 ± 0.72
SLEDEEQLYLANSIREGLAV	0.76 ± 0.51
PCSSVLLEHWSRYASRCEMV	1.28 ± 0.58
WFGDGSCKRWLWGMKVTPED	-0.518 ± 0.69
HFAGCNSIDLQCNIRCKNIR	5.469 ± 0.048
SRKVKVWPVGLRRLVMFFVN	1.43 ± 0.53
VFCYQT	0.055 ± 1.1
LLRYITARETSLTQSQP	0.298 ± 0.53
WLHNIQRYTFFSKLRNQRRR	-0.442 ± 0.76
ENIPARRLKCPFNTP	-0.511 ± 1.2
CPSIILPFVYRNGSVTMVPF	0.927 ± 0.2
LCEFSPLSCGCYGRDPHVPP	-0.73 ± 1.2
LRTVPIALIRNMLPVNQESR	0.479 ± 0.53
FQLGAHKLRAWLDRGYPEFA	-0.202 ± 0.64
GGMIAIKHKFIYYDLELWGY	-0.94 ± 0.43
LMLISHEDFLLVFAWFN	-0.062 ± 0.54
VLLGSCWVFKSQKGRGPSSC	-0.51 ± 0.69
WSLVDDPLVFERLFWPCYQ	0.142 ± 0.31
AKVPVKGQRLRTGLPKSTHT	-1.88 ± 1.4

Substance	amyloid nucleation score
HSGNTLIQMCVI	-0.083 ± 0.61
MLLIRNFQFTTLFVCHFSAE	-0.038 ± 0.16
IRRAENLFIRYSHR	0.855 ± 0.58
MHWFRVN	0.324 ± 0.3
MVAEIYQAFWVC	-0.349 ± 1.2
EQLACQNVVSGCQSA	0.277 ± 0.97
TENVLLTYVFYAKSRLGSVV	0.921 ± 0.56
GRMTVRNCGQDPLVFRTYQG	-1.13 ± 2.7
NFKNRPSRLSRSNRSLFSTG	-0.887 ± 0.85
WLSSKGRQSMSYCAYTMRTP	-0.247 ± 0.34
KDTQCHIARATRRGVRGNVF	-0.48 ± 1.1
VLGMPSLRILYITCCSDMVC	6.37 ± 0.046
TNILLLHFSDHEFGLEFRYL	1.68 ± 0.17
EVFDDCGGLMNYM	inactive
PYLYRTLKKPLATHWSQFVK	-1.22 ± 0.9
CLFNEALINANHLNNINWML	-0.361 ± 0.66
CMAVWEKIENGVHLLHRSAD	2.76 ± 0.12
LNYFLLLMFQCDGRILFRFY	0.652 ± 0.84
YKFCVILSNGRQCVMALVRP	0.286 ± 1.2
VYDLS	-0.006 ± 0.72
ILLGYGQSMSRHIPTDKNEL	-0.79 ± 0.74

Substance	amyloid nucleation score
RANSGNVTFMVRPAFMVVLK	-0.389 ± 0.78
QNMLFTIKRFSNQPDTVVFE	-0.202 ± 0.49
TDIHTVHRSNLVKVLRKGMN	-0.411 ± 0.53
DARLFDFYFANLVSSQGNCF	1.09 ± 0.56
ATAVYMSVLMVPDLRMKAEG	1.5 ± 0.7
QRNHWLYGVTLMPCSHICIL	7.594 ± 0.053
VEGLERLLVLWHWPFAWNYF	-0.735 ± 1.4
LTGRCPFVGLRLEGHLFLTG	-0.169 ± 0.81
EVFNEKSVSLRGWNIHGNFC	0.03 ± 0.94
VECLAAVNYGEVHDPGVMDR	0.417 ± 0.71
CSQDYFIYYYPVLMLE	-0.112 ± 0.46
GLYTLSHHGCNAQGWVRDGS	0.324 ± 0.45
WSTQSLCFGPT	0.012 ± 0.63
WVLVIVLLRRWHHRDGAGQS	0.57 ± 0.47
DRAWTGVWDDESPTT	-0.383 ± 1.7
IMGVDVLGYTLDPVGDCNVF	0.412 ± 0.73
NVTFHSRSGV	-0.316 ± 0.84
WLLWLTSSYKHQWMT	-1.7 ± 1.4
IRRSIGVRAPWTFSEEDGSS	0.6 ± 0.79
LINSFLVLWKPFIFAEGRTR	7.903 ± 0.066
